Here are results for one molecule from CN111909265A (INST MILITARY MEDICINE ACADEMY MILITARY SCIENCES PLA, dated 2020).

The EC50 is the concentration at which the effect is half-maximal. Read a low EC50 as greater potency. What is called Kd is a measure of binding affinity in units of concentration. Read a low Kd as a tighter complex.

In assay [1] the target is T1, 破伤风类毒素 (TT) (破伤风梭菌 (C.tetani), UniProt P04958 2-1315). Nature of the assay: ELISA, coated TT 1 μg/mL, T9-6 titrated 1:3 from 3.3 μg/mL.
T1 sequence (P04958 2-457 limits assumed): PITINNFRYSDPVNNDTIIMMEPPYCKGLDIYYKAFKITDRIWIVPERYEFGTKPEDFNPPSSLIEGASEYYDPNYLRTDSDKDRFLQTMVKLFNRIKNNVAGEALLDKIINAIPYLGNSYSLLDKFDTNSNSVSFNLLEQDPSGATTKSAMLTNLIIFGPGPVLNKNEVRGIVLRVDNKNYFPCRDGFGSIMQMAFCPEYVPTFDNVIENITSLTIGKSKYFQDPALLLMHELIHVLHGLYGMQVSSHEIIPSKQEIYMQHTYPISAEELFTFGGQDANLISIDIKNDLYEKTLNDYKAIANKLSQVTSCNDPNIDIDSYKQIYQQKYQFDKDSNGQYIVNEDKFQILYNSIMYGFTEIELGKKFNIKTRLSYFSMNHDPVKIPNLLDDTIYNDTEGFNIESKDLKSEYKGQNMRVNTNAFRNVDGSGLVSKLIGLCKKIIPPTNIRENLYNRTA
Assay [2] addresses T2, 破伤风毒素重链C端结构域 (TeNT-HC, GenBank:AF154828) (破伤风梭菌 (C.tetani), UniProt P04958 865-1315).
T2 sequence: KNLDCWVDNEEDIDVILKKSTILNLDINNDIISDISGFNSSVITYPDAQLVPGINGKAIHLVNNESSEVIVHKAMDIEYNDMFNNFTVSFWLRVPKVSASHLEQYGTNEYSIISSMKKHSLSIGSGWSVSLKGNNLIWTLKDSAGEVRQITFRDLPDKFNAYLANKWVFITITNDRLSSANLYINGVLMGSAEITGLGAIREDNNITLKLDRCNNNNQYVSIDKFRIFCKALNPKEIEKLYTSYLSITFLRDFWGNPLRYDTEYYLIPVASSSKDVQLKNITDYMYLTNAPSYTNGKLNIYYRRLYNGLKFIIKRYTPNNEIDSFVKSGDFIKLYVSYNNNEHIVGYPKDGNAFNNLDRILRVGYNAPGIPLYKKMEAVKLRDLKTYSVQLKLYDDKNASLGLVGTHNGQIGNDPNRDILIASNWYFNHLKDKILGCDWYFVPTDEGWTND
Briefly: ELISA, coated TeNT-HC 1 μg/mL, T9-6 titrated 1:3 from 3.3 μg/mL.

In assay [3] the target is T1, 破伤风类毒素 (TT).

B1: T9-6 人源抗破伤风毒素单克隆抗体 (antibody, V domains shown)
VH: QLVQSGGGLIQPGGSLRLSCAASGSGFSVSSNYMTWVRQAPGKGLEWVAVIYRNGSTNYADSVRGRFTISRDNSKNTVFVQMNRLRVEDTAVYYCARDFVVVVSTGPEVSYYSYGMDVWGQGTMVTGSS
VL: DIVMTQSPSSLSASVGDRVTITCRASQGISDYLSWYQQKPGKAPKRLIYGTSSLDSGVPSRFSGSGSGTEFTLTISSLQPEDVATYYCLQHHGFPRTFGQGTKVDIKR
In the case of B1, the EC50 in the assay with 破伤风类毒素 (TT) [1] came to 6.18 ng/mL; in assay [2] it was 3.45 ng/mL. The same molecule showed a Kd with 破伤风类毒素 (TT) [3] of 397 pM.
